The text below walks through data of patent US20090053213A1 (MorphoSys, published 2009).

Where a chain is given by its changes, count along the chain named.

The labels stand for the following.
T1: human IL-5 (human, UniProt P05113 20-134)
T1 construct: Bought recombinant protein
T1 sequence (looked up): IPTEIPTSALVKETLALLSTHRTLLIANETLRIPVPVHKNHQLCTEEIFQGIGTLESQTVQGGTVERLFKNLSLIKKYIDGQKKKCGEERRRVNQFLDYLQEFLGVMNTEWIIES

T2: human IL-4 (human, UniProt P05112 25-153)
T2 construct: Bought recombinant protein
T2 sequence (looked up): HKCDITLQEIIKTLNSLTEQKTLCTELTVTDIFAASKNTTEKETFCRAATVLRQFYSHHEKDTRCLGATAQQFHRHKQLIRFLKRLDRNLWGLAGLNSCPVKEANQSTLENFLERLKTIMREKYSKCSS

T3: mouse GM-CSF (mouse, UniProt P01587 18-141)
T3 construct: Bought recombinant protein
T3 sequence (looked up): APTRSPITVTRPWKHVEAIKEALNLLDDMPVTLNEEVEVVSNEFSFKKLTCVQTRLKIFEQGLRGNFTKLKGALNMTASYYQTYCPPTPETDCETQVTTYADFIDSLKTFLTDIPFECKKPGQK

T4: human IL-3 (human, UniProt P08700 20-152)
T4 construct: Bought recombinant protein
T4 sequence (looked up): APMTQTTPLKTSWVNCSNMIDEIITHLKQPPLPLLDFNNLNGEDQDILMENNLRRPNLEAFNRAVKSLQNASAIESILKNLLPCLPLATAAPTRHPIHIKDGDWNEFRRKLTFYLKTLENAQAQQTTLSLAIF

T5: human M-CSF (human, UniProt P09603 33-190, limits assumed)
T5 construct: Bought recombinant protein
T5 sequence (looked up): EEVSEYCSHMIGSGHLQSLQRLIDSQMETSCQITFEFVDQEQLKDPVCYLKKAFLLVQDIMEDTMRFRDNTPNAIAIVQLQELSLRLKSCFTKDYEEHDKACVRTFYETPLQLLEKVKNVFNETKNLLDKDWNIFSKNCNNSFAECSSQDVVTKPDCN

T6: rat GM-CSF (rat, UniProt P48750 18-144)
T6 construct: Bought recombinant protein; also called rat-GM-CSF (Peprotech); rat recombinant GM-CSF
T6 sequence (looked up): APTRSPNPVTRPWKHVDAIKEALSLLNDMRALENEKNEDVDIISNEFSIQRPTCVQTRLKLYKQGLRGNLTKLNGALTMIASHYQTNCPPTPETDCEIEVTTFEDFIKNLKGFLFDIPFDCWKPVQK

B1: MOR04251 Fab (Fab, V domains shown)
VH: QVQLVESGGGLVQPGGSLRLSCAASGFTFSSHWMSWVRQAPGKGLEWVSNIWRGPYIYYADSVKGRFTISRDNSKNTLYLQMNSLRAEDTAVYYCARFQGYGGGFDYWGQGTLVTVSS
VL: DIELTQPPSVSVAPGQTARISCSGDNLPGKYVHWYQQKPGQAPVLVIYYDSNRPSGIPERFSGSNSGNTATLTISGTQAEDEADYYCQSRTQTTIVFGGGTKLTVLG
B2: MOR03684 Fab (Fab, V domains shown)
VH: QVQLVESGGGLVQPGGSLRLSCAASGFTFSSHWMSWVRQAPGKGLEWVSNGIFSDGSATYYADSVKGRFTISRDNSKNTLYLQMNSLRAEDTAVYYCARFQGYGGGFDYWGQGTLVTVSS
VL: B1 VL
notes: carries two C-terminal tags (FLAG and 6xHis); also called antibody no
B3: MOR04252 Fab (Fab, V domains shown)
VH: QVQLVESGGGLVQPGGSLRLSCAASGFTFSSYWMNWVRQAPGKGLEWVSGIENKYAGGATYYAASVKGRFTISRDNSKNTLYLQMNSLRAEDTAVYYCARGFGTDFWGQGTLVTVSS
VL: DIELTQPPSVSVAPGQTARISCSGDSIGKKYAYWYQQKPGQAPVLVIYKKRPSGIPERFSGSNSGNTATLTISGTQAEDEADYYCSSWDSTGLVFGGGTKLTVLG
notes: Fab with FLAG and 6xHis tags
B4: MOR04350 Fab (Fab, V domains shown)
VH: B3 VH with Y55R, Y61F
VL: B3 VL with S87A, D89G, S90D, T91K, L93M
notes: X-cloned Fab (VH of MOR04287 x VL of MOR04302) with FLAG and 6xHis tags
B5: MOR04287 Fab (Fab, V domains shown)
VH: B3 VH with Y55R, Y61F
VL: B3 VL
notes: Fab with FLAG and 6xHis tags
B6: MOR04290 Fab (Fab, V domains shown)
VH: B3 VH with N53S, Y55W, S65G
VL: B3 VL
notes: Fab with FLAG and 6xHis tags
B7: MOR04302 Fab (Fab, V domains shown)
VH: QVQLVESGGGLVQPGGSLRLSCAASGFTFSSYWMNWVRQAPGKGLEWVSGISYSGSETYYADSVKGRFTISRDNSKNTLYLQMNSLRAEDTAVYYCARGFGTDFWGQGTLVTVSS
VL: B3 VL with S87A, D89G, S90D, T91K, L93M
notes: Fab with FLAG and 6xHis tags
B8: MOR04354 Fab (Fab, V domains shown)
VH: B3 VH with N53S, Y55W, S65G
VL: B3 VL with S87A, D89G, S90D, T91K, L93M
notes: X-cloned Fab (VH of MOR04290 x VL of MOR04302) with FLAG and 6xHis tags
B9: MOR04283 Fab (Fab, V domains shown)
VH: QVQLVQSGAEVKKPGSSVKVSCKASGGTFNSFLISWVRQAPGQGLEWMGAISPWDGVTGYAQKFQGRVTITADESTSTAYMELSSLRSEDTAVYYCARKFISDSWGQGTLVTVSS
VL: DIQMTQSPSSLSASVGDRVTITCRASQTINNYLNWYQQKPGKAPKLLIYTASNLQSGVPSRFSGSGSGTDFTLTISSLQPEDFAVYYCQQYSGSPMTFGQGTKVEIKR
notes: Fab with FLAG and 6xHis tags
B10: MOR04297 Fab (Fab, V domains shown)
VH: B9 VH with A50G, S52I, W54I, D55F, V57T, T58A, G59N
VL: B9 VL with V85T, G93W, S94V, M96H
notes: Fab with FLAG and 6xHis tags
B11: MOR04342 Fab (Fab, V domains shown)
VH: B9 VH
VL: B9 VL with V85T, G93W, S94V, M96H
notes: X-cloned Fab (VH of MOR04283 x VL of MOR04297) with FLAG and 6xHis tags

The target in the first experiment is T7, human GM-CSF (human, UniProt P04141 18-144).
T7 construct: mature; the preparation is named under assay or readout; also called hGM-CSF; recombinant human GM-CSF
T7 sequence (P04141 18-144): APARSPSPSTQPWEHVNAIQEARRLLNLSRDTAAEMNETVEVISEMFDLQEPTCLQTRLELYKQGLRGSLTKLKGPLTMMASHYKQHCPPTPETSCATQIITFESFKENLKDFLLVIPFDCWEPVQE
The experiment in a line: FACS receptor inhibition assay: inhibition of binding of 0.5 µg/ml biotinylated GM-CSF to GM-CSF receptor alpha on CHO-GMRa#11 cells.
Description: (§1) All stainings were performed in round bottom 96-well culture plates (Nalge Nunc) with 1-5×10⁵ cells per well. […] Cells were then washed once with 150 μl FACS buffer/well and taken up in 100 μl phycoerythrin-labeled streptavidin (BD Biosciences Pharmingen) which has been diluted 1:400 in FACS buffer. […] IC₅₀ values were determined from the dose response curves obtained using GraphPad Prism v3.03 software applying a non-linear regression curve fit.
(§2) IC₅₀ values were determined from the dose response curves obtained using GraphPad Prism v3.03 software applying a non-linear regression curve fit.
What is called % inhibition is the percentage by which the read-out fell short of the control. A lower % inhibition goes with a weak effect. Turning to B1, the “% inhibition at 5 µg/ml antibody” value is around 100%.
Consider B2, for which the “% inhibition at 5 µg/ml antibody” value is around 25%.
As to B3, the “% inhibition at 5 µg/ml antibody” value is around 75%.
B4: the “% inhibition at 5 µg/ml antibody” value is around 75%.
Consider B5, for which the “% inhibition at 5 µg/ml antibody” value was around 75%.
In the case of B6, the “% inhibition at 5 µg/ml antibody” value is around 75%.
B7: the “% inhibition at 5 µg/ml antibody” value is around 75%.
For the molecule B8, the “% inhibition at 5 µg/ml antibody” value is around 75%.

The target in the next experiment is T7, human GM-CSF. The experiment can be described thus: cell-based or functional assay.
For B2, the “inhibition of TF1 cell proliferation at 2 µM Fab, human GM-CSF (Leucomax) 0.25 ng/ml” value is above 50%.
As to B4, the “fold improvement of IC50 in TF-1 proliferation assay compared to parental MOR03929” value is above 2000 fold.
With B8, the “fold improvement of IC50 in TF-1 proliferation assay compared to parental MOR03929” value was above 2000 fold.

In a further experiment the target is T7, human GM-CSF. The experiment can be described thus: FACS receptor inhibition assay: antibody pre-incubated with 0.5 µg/ml biotinylated GM-CSF, binding to GM-CSF receptor alpha on CHO-GMRa#11 cells.
Description: as §1, §2
For orientation: IC50 means the concentration that inhibits the measured activity by half. A lower IC50 goes with greater potency in that assay. Molecule B1 came in with an IC50 of 53000 pM.
Same read-out and setting: the result for B2 reads above 400000 pM.
The molecule B3 yielded an IC50 of 26000 pM.
Take B4: the IC50 amounted to 24000 pM.
Same read-out and setting: the result for B5 reads 25000 pM; that for B6, 27000 pM.
In turn, B7 yielded an IC50 of 24000 pM.
As to B8, the 50% inhibitory concentration (IC50) came out at 26000 pM.

A further experiment has as its target T7, human GM-CSF. The experiment can be described thus: cell-based or functional assay. The source holds these as a separate data set.
In the case of B9, the “IC50 (pM) in TF-1 proliferation assay, human GM-CSF” value came to 17300 pM.
On the same count and under the same terms, the result for B10 reads 14000 pM; that for B11, 80 pM.

The target in another experiment is T7, human GM-CSF. The experiment can be described thus: solution equilibrium titration (SET, ECL/BioVeris), Fab with human GM-CSF (Leucomax) in solution.
The term Kd denotes the equilibrium constant for the complex coming apart. The molecule B1 gave a Kd of 7.4 pM.
As for B2, the Kd turned out to be 16000 pM.
B3 gave a Kd of 6 pM.
Still for that read-out and setting: the result for B4 reads 1.1 pM; that for B5, 17.9 pM.
The same measure, in the same setting: the result for B6 reads 11.1 pM.
As for B7, the Kd turned out to be 63.5 pM.
With B8, the equilibrium dissociation constant (Kd) came out at 2.8 pM.
On the same count and under the same terms, the result for B9 reads 113 pM; that for B10, 49.2 pM.
B11: the affinity, expressed as Kd, was 4.9 pM.

A further experiment deals with T7, human GM-CSF. The experiment can be described thus: cell-based or functional assay. This is another data set of the same source.
Take B1: the “IC50 (pM) in TF-1 proliferation assay, human GM-CSF 0.25 ng/ml” value (“IC50 (pM) … human GM-CSF 0.25 ng/ml” for short) is 463 pM; the “IC50 x-fold improved compared to BVD2-21C11, TF-1 proliferation assay” value came to 14.2 fold; the “IC50 x-fold improved compared to Mab215, TF-1 proliferation assay” value (from here on “IC50 x-fold improved compared to Mab215”) was 9.3 fold.
Regarding B2, the “IC50 (pM) … human GM-CSF 0.25 ng/ml” value was above 200000 pM.
On to B3, for which the “IC50 (pM) … human GM-CSF 0.25 ng/ml” value is 2010 pM; the “IC50 x-fold improved compared to BVD2-21C11, TF-1 proliferation assay” value was 3.2 fold; the “IC50 x-fold improved compared to Mab215” value came to 2.1 fold.
For the molecule B4, the “IC50 (pM) … human GM-CSF 0.25 ng/ml” value was determined as 82 pM; the “IC50 x-fold improved compared to BVD2-21C11, TF-1 proliferation assay” value is 80 fold; the “IC50 x-fold improved compared to Mab215” value was 52.6 fold.
The corresponding values for B5 are 3380 pM, 1.9 fold and 1.3 fold.
For the molecule B6, the “IC50 (pM) … human GM-CSF 0.25 ng/ml” value was found to be 696 pM; the “IC50 x-fold improved compared to BVD2-21C11, TF-1 proliferation assay” value is 9.4 fold; the “IC50 x-fold improved compared to Mab215” value came to 6.2 fold.
In the case of B7, the “IC50 (pM) … human GM-CSF 0.25 ng/ml” value came to 10700 pM.
On to B8, for which the “IC50 (pM) … human GM-CSF 0.25 ng/ml” value is 56 pM; the “IC50 x-fold improved compared to BVD2-21C11, TF-1 proliferation assay” value was 117 fold; the “IC50 x-fold improved compared to Mab215” value was determined as 77.1 fold.

The target in the next experiment is T7, human GM-CSF. The experiment in a line: SPR (Biacore), Fab over immobilized recombinant human GM-CSF (Peprotech), F1 chip; affinity estimated from off-rates.
Description: A respective amount of HSA was immobilized on the reference flow cell. […] Fab was applied in concentration series of 6.3-200 nM at a flow rate of 20 μl/min.
Regarding B1, the Kd is 70 pM.
Regarding B2, the Kd was 6420 pM.
B3: the Kd was 55 pM.
Regarding B4, the Kd was 19 pM.
Consider B6, for which the Kd was 122 pM.
Regarding B7, the dissociation constant (Kd) is 174 pM.
In the case of B8, the Kd was 21 pM.

Another experiment addresses T1, human IL-5. The experiment can be described thus: SPR (Biacore 3000), Fab captured on anti-F(ab)2, cytokine as analyte.
Description: (§3) This was performed in a capture set-up by surface plasmon resonance (Biacore 3000, Uppsala, Sweden).
(§4) CM5 chips (Biacore, Sweden) were coated with 5000-6000 RU anti-F(ab)₂ (Dianova, Affinipure F(ab)₂ Fragment Goat Anti-Human IgG, F(ab)₂ Fragment specific); 80 μg/ml 10 mM acetate buffer, pH4 on all 4 flow cells, using standard EDC-NHS amine coupling chemistry. […] After capturing of the specific Fab, buffer was injected, to determine the dissociation of anti-Fab/Fab interaction. In a following cycle, the analyte growth factor was injected (20 μl, flow rate 20 μl/min) at a concentration range between 15 and 2000 nM for the determination of the specific signal. Afterwards the achieved buffer sensogram was manually subtracted from the specific one. After each cycle, the flow cells were regenerated with 100 mM HCl (5 μl).
On to B2, for which the binding result was “no binding (tested: analyte 15 to 2000 nM)”.

Another experiment deals with T8, human IL-13 (human, UniProt P35225 35-146).
T8 construct: Bought recombinant protein
T8 sequence (P35225 35-146 limits assumed): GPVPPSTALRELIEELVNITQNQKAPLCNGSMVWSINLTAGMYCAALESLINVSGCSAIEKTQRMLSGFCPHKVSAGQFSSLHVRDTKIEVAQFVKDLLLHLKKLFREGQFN
Described as above.
Description: as §3, §4
For B2, the binding result was “no binding (tested: analyte 15 to 2000 nM)”.

The target in a further experiment is T2, human IL-4. The experiment is described as above.
Description: as §3, §4
Regarding B2, the binding result is “no binding (tested: analyte 15 to 2000 nM)”.

In another experiment the target is T3, mouse GM-CSF. The description is as above.
Description: as §3, §4
On to B2, for which the binding result is “no binding (tested: analyte 15 to 2000 nM)”.

A further experiment concerns the target T4, human IL-3. Described as above.
Description: as §3, §4
Regarding B2, the binding result is listed as “no binding (tested: analyte 15 to 2000 nM)”.

The next experiment concerns the target T5, human M-CSF. The experiment is described as above.
Description: as §3, §4
Turning to B2, the binding result was “no binding (tested: analyte 15 to 2000 nM)”.

The target in a further experiment is T6, rat GM-CSF. Described as above.
Description: as §3, §4
Take B2: the binding result is listed as “no binding (tested: analyte 15 to 2000 nM)”.
